Entries after “also recorded” stand apart in the source; their conditions may differ.
Columns and labels:
ARPE-19 cells = assay: ARPE-19 cytotoxicity of liposomal complexes, MTT assay; type: cell-based; conditions: similar concentrations as cycloretinal, 96-h period
Description: The liposomal complexes were prepared as follows. Cycloretinal (10 mg), β-Ionone (20 mg), and 2,4-Dimethylbenzaldehyde (20 mg) were dissolved separately in ethanol (1 mL). Glyoxal (5.80 mg), methylglyoxal (7.21 mg), and β-cyclocitral (15.2 mg) were dissolved separately in chloroform (1 mL). A liposome solution of cholesterol (112 mg), Tween 80 (504 mg), and L-α-phosphatidylcholine (730 mg) were dissolved in 16 mL of chloroform. Liposome solution (2 mL) was added to each of the compounds. The solvents were removed under vacuum and charged with nitrogen. Each of the flasks were then mixed with 5 mL of water and stirred at 60° C. for 1 h. Each solution was placed on ice and sonicated with a probe sonicator (15 seconds on/15 seconds off) for 5 min. The solutions were centrifuged at 11,000×g for 30 min and filtered through a 0.2 μm filter. Each sample (10 μL) was added to 1 mL ethanol and measured by absorption via UV-Vis spectroscopy. The extinction coefficients were 9970 M^−1cm^−1, 26343 M^−1cm^−1, and 13476 M^−1cm^−1 for cycloretinal, 2,4-dimethylbenzaldehyde, and β-ionone, respectively. […]
Cell viability was assessed with the MTT cell proliferation assay. […] The absorbance was subsequently evaluated at 570 nm utilizing a microplate reader (quant absorbance plate reader, BioTek Instruments Inc.) […]

[1] = substrate: CC(C=CC1=C(C)CCCC1(C)C)=CC=CC1=CC=C(C=O)C(C)(C=CC=C(C)C=CC2=C(C)CCCC2(C)C)C1; assay: MsP1 H365F variant-catalyzed degradation of cycloretinal, steady-state enzyme kinetics; type: biochemical, Marasmius scorodonius; conditions: other: H365F, PBS pH 7.4, H2O2, 430 nm, mean and 95% confidence limits
Description: (§1) The gene encoding Marasmius scorodonius extracellular peroxidase MsP1 (UniProtKB, B0BK71) and its R388L variant were chemically synthesized with codon optimization for E. coli, having an optimized sequence length 1539 bp cloned into pUC57 vector with a GC content of 54.67% (SEQ ID NO: 5).
(§2) MsP1 mutants were generated using the Agilent mutagenesis kit (Quick change II site directed mutagenesis kit, catalog number: 200523) and primers of Table 1. Primer annealing was carried out at 55° C. for 60 seconds followed by a polymerization step carried out at 68° C. for 5 minutes. A total of 16 cycles were carried out. After PCR amplification DpnI digestion was performed by adding 1.5 μL DpnI to PCR amplification mixture incubating for 4 hours at 37° C. The resulting mixture was cleaned using resin provided in the kit and transformed into XL1 Blue electrocompetent cells. The resulting clones were screened and sequenced to confirm mutagenesis.
(§3) Active site residues were selected based on multiple sequence alignment with homologous DyPs and protein modelling, His 365, Asp 228, and Arg 388 were identified as amino acids that are critical to MsP1 activity. […] This means that wtMsP1 has greater substrate affinity for cycloretinal, compared with D228A and R388L variants, and reaches half maximal velocity at lower substrate concentration. […] The greater affinity observed for the phenylalanine variant likely signifies that cycloretinal can dock with greater affinity in the active site since the iron porphyrin heme cofactor would no longer be covalently bound at residue 365. Therefore, the residues involved in MsP1 catalysis are D228, H365, and R388 (FIG. 10).

[2] = substrate: CC(C=CC1=C(C)CCCC1(C)C)=CC=CC1=CC=C(C=O)C(C)(C=CC=C(C)C=CC2=C(C)CCCC2(C)C)C1; assay: MsP1 D228A variant-catalyzed degradation of cycloretinal, steady-state enzyme kinetics; type: biochemical, Marasmius scorodonius; conditions: other: D228A, PBS pH 7.4, H2O2, 430 nm, mean and 95% confidence limits
Description: as §1, §2, §3

[3] = substrate: CC(C=CC1=C(C)CCCC1(C)C)=CC=CC1=CC=C(C=O)C(C)(C=CC=C(C)C=CC2=C(C)CCCC2(C)C)C1; assay: MsP1-catalyzed degradation of cycloretinal, steady-state enzyme kinetics (decrease in absorbance at 430 nm); type: biochemical, Marasmius scorodonius; conditions: other: wtMsP1, PBS pH 7.4, H2O2, 430 nm, mean and 95% confidence limits
Source text: as §1

[4] = substrate: CC(C=CC1=C(C)CCCC1(C)C)=CC=CC1=CC=C(C=O)C(C)(C=CC=C(C)C=CC2=C(C)CCCC2(C)C)C1; assay: MsP1 R388L variant-catalyzed degradation of cycloretinal, steady-state enzyme kinetics; type: biochemical, Marasmius scorodonius; conditions: other: R388L, PBS pH 7.4, H2O2, 430 nm, mean and 95% confidence limits
Description: as §1, §2, §3

[5] = Activity of MsP1 at different pH (cycloretinal degradation); type: biochemical
Description: To determine the optimum pH for MsP1 activity, cycloretinal degradation reactions were carried out in PBS buffer as described herein but at different pH values by adjusting pH with either NaOH or HCl (i.e. a pH of 5.5, 6.4, 7.0, 7.5). Sample OD values were monitored using a UV-Vis spectrophotometer (Genesys™2, ThermoSpectronic) at 430 nm over a period of 300 seconds.

Molecule: O=CC=O [glyoxal]
- impact on cell viability / toxicity to ARPE-19 cells (ARPE-19 cells): no impact on cell viability; also recorded: do not exhibit toxicity

B1: Marasmius scorodonius peroxidase MsP1 variant H365F (parent SEQ ID NO: 1) (Mycetinis scorodonius; H365F) (protein)
chain: ASSSAGLNLTDIQGDILIGMKKNKELFFFFSITDAATFKAKLGSDILELITSTNQLLAVATQPITAVNVAFSSTGLKALGITDDLKDPVFEAGMLSNAVSDLSDPGTGNWVPGFVGTSVHGVFLLASDTIDNVNTELANIQTILNGSITEIHRLQGEARPGDQQGHEHFGFMDGISNPAVDGFTPPAEIRPGQALIPPGIMLLGEANDTFQNDRPPWAKDGSFLVFRQMQQRAPEFNKFLQDHALNMPNMTSEQGADLLGARIVGRWKSDAPIDLTPLVDDPVLAADNQRNNNFDFSDATNQTRCPFSAFIRKANPRGDLGGINKFPNQHIIRAGIPYGPEVTDAEKASNSSSTDPSLERGLAFVAYQSNIQNGFVFLQKNWVDNTNFFRPGTGVDPLIGTNSRNSGTDAPNTPRVVSGLDPNNATSTIEIGIDFVVSRGGEYFFSPSLSAIRTVLSV
notes: site-directed mutant
- Km [1]: 906 ± 26 µM
- kcat [1]: 0.142 ± 0.0031 s⁻¹
- kcat/Km [1]: 156 ± 8 M⁻¹ s⁻¹

B2: Marasmius scorodonius peroxidase MsP1 variant D228A (parent SEQ ID NO: 1) (Mycetinis scorodonius; D228A) (protein)
chain: ASSSAGLNLTDIQGDILIGMKKNKELFFFFSITDAATFKAKLGSDILELITSTNQLLAVATQPITAVNVAFSSTGLKALGITDDLKDPVFEAGMLSNAVSDLSDPGTGNWVPGFVGTSVHGVFLLASDTIDNVNTELANIQTILNGSITEIHRLQGEARPGDQQGHEHFGFMAGISNPAVDGFTPPAEIRPGQALIPPGIMLLGEANDTFQNDRPPWAKDGSFLVFRQMQQRAPEFNKFLQDHALNMPNMTSEQGADLLGARIVGRWKSDAPIDLTPLVDDPVLAADNQRNNNFDFSDATNQTRCPFSAHIRKANPRGDLGGINKFPNQHIIRAGIPYGPEVTDAEKASNSSSTDPSLERGLAFVAYQSNIQNGFVFLQKNWVDNTNFFRPGTGVDPLIGTNSRNSGTDAPNTPRVVSGLDPNNATSTIEIGIDFVVSRGGEYFFSPSLSAIRTVLSV
notes: site-directed mutant
- Km [2]: 4230 ± 82 µM
- kcat [2]: 0.388 ± 0.0073 s⁻¹
- kcat/Km [2]: 91.6 ± 3.5 M⁻¹ s⁻¹

B3: Marasmius scorodonius peroxidase MsP1, wild type (wtMsP1), SEQ ID NO: 1 (Mycetinis scorodonius) (protein)
chain: ASSSAGLNLTDIQGDILIGMKKNKELFFFFSITDAATFKAKLGSDILELITSTNQLLAVATQPITAVNVAFSSTGLKALGITDDLKDPVFEAGMLSNAVSDLSDPGTGNWVPGFVGTSVHGVFLLASDTIDNVNTELANIQTILNGSITEIHRLQGEARPGDQQGHEHFGFMDGISNPAVDGFTPPAEIRPGQALIPPGIMLLGEANDTFQNDRPPWAKDGSFLVFRQMQQRAPEFNKFLQDHALNMPNMTSEQGADLLGARIVGRWKSDAPIDLTPLVDDPVLAADNQRNNNFDFSDATNQTRCPFSAHIRKANPRGDLGGINKFPNQHIIRAGIPYGPEVTDAEKASNSSSTDPSLERGLAFVAYQSNIQNGFVFLQKNWVDNTNFFRPGTGVDPLIGTNSRNSGTDAPNTPRVVSGLDPNNATSTIEIGIDFVVSRGGEYFFSPSLSAIRTVLSV
notes: wild type
- Km [3]: 845 ± 11 µM
- kcat [3]: 0.229 ± 0.0024 s⁻¹
- kcat/Km [3]: 271 ± 6.2 M⁻¹ s⁻¹

B4: Marasmius scorodonius peroxidase MsP1 variant R388L (parent SEQ ID NO: 1) (Mycetinis scorodonius; R388L) (protein)
chain: ASSSAGLNLTDIQGDILIGMKKNKELFFFFSITDAATFKAKLGSDILELITSTNQLLAVATQPITAVNVAFSSTGLKALGITDDLKDPVFEAGMLSNAVSDLSDPGTGNWVPGFVGTSVHGVFLLASDTIDNVNTELANIQTILNGSITEIHRLQGEARPGDQQGHEHFGFMDGISNPAVDGFTPPAEIRPGQALIPPGIMLLGEANDTFQNDRPPWAKDGSFLVFRQMQQRAPEFNKFLQDHALNMPNMTSEQGADLLGARIVGRWKSDAPIDLTPLVDDPVLAADNQRNNNFDFSDATNQTRCPFSAHIRKANPRGDLGGINKFPNQHIILAGIPYGPEVTDAEKASNSSSTDPSLERGLAFVAYQSNIQNGFVFLQKNWVDNTNFFRPGTGVDPLIGTNSRNSGTDAPNTPRVVSGLDPNNATSTIEIGIDFVVSRGGEYFFSPSLSAIRTVLSV
notes: R388L variant gene synthesized
- Km [4]: 1140 ± 11 µM
- kcat [4]: 0.0218 ± 0.00018 s⁻¹
- kcat/Km [4]: 19.2 ± 0.3 M⁻¹ s⁻¹

B5: MsP1: peroxidase enzyme from the organism Marasmius scorodonius, SEQ ID NO: 1; recombinant, N-terminal hexa-Histidine tag (protein, listed as Mycetinis scorodonius)
chain: MKLFSASVFAAIIASHYASATAHIRAPNVKPRRTNSLLTAPPQQPPLPSAQQAASASSSAGLNLTDIQGDILIGMKKNKELFFFFSITDAATFKAKLGSDILELITSTNQLLAVATQPITAVNVAFSSTGLKALGITDDLKDPVFEAGMLSNAVSDLSDPGTGNWVPGFVGTSVHGVFLLASDTIDNVNTELANIQTILNGSITEIHRLQGEARPGDQQGHEHFGFMDGISNPAVDGFTPPAEIRPGQALIPPGIMLLGEANDTFQNDRPPWAKDGSFLVFRQMQQRAPEFNKFLQDHALNMPNMTSEQGADLLGARIVGRWKSDAPIDLTPLVDDPVLAADNQRNNNFDFSDATNQTRCPFSAHIRKANPRGDLGGINKFPNQHIIRAGIPYGPEVTDAEKASNSSSTDPSLERGLAFVAYQSNIQNGFVFLQKNWVDNTNFFRPGTGVDPLIGTNSRNSGTDAPNTPRVVSGLDPNNATSTIEIGIDFVVSRGGEYFFSPSLSAIRTVLSV
modifications: MsP1 amino acid sequence
- optimal pH for MsP1 catalytic activity towards cycloretinal ([5]; pH 5.5, 6.4, 7.0, 7.5 tested): 5.5
- activity at lysosomal pH ([5]; pH of 5.5): highly active
